Target: Biotinylated Human Thrombin (human) (UniProt P00734)
Experiment: mRNA display selection on biotinylated human thrombin, round 2; NGS read frequency

mRNA-displayed cow antibody scaffold polypeptide with cassette RTKIK*NGL* (designed binder)
counts: 86 counts
percentage (%): 0.0052%
